Measurements published in patent publication US20200283478A1 (Genentech, published 2020).
Blank lines part the entries; values can stand above or below the binder they belong to. Square brackets hold non-standard residues; d marks the D form. Ends that are not written are not given here. * marks the point of attachment. Trp(6-Br) = N[C@@H](Cc1c[nH]c2cc(Br)ccc12)C(=O)O; Trp(6-Cl) = N[C@@H](Cc1c[nH]c2cc(Cl)ccc12)C(=O)O; Trp(6-F) = N[C@@H](Cc1c[nH]c2cc(F)ccc12)C(=O)O; Trp(6-Me) = Cc1ccc2c(C[C@H](N)C(=O)O)c[nH]c2c1; hArg = N=C(N)NCCCC[C@H](N)C(=O)O; Pentanoyl = CCCCC(=O)*

What was measured:
[1] = biological target: T1, His-tagged, full-length PCSK9 (human, UniProt Q8NBP7 31-692); experiment: TR-FRET competition; His-PCSK9, competitor EGF(A)-Fc
T1 construct: The secreted protein is autocleaved into a prodomain and a catalytic/Cys-rich chain that starts at S153; also called His-PCSK9
Description: (§1) Signal generation in the PCSK9 binding assays was dependent upon the binding interaction to bring into close proximity the His-tag on the PCSK9 and the Fc-tag on the ligand. Anti-His-APC was bound to the His-tag, and anti-Fc-europium was bound to the Fc-tag.
(§2) Compounds were solubilized and dilutions were prepared in DMSO. […] The plate was centrifuged to mix the well contents and allowed to incubate for 30 min. […] The normalized TR-FRET ratios were plotted as a function of the compound concentrations, and the IC₅₀ values were determined using a 4-parameter logistic regression.

[2] = biological target: T2, His-tagged PCSK9Δhelix (human, UniProt Q8NBP7 31-152; Q8NBP7 168-692); experiment: TR-FRET competition; His-PCSK9Δhelix, competitor Ab20
T2 construct: Construct M1-Q692 with engineered TEV site, cut by TEV protease; new N-terminus of the catalytic domain is S-A168; also called His-PCSK9Δhelix
T2 sequence (Q8NBP7 31-152, stated change not applied, chain 1 of 2): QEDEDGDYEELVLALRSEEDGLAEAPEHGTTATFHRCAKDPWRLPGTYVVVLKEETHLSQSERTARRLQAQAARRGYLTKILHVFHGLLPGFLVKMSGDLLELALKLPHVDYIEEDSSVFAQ
T2 sequence (Q8NBP7 other isoform, or with tags, fused parts or gaps mutant, chain 2 of 2): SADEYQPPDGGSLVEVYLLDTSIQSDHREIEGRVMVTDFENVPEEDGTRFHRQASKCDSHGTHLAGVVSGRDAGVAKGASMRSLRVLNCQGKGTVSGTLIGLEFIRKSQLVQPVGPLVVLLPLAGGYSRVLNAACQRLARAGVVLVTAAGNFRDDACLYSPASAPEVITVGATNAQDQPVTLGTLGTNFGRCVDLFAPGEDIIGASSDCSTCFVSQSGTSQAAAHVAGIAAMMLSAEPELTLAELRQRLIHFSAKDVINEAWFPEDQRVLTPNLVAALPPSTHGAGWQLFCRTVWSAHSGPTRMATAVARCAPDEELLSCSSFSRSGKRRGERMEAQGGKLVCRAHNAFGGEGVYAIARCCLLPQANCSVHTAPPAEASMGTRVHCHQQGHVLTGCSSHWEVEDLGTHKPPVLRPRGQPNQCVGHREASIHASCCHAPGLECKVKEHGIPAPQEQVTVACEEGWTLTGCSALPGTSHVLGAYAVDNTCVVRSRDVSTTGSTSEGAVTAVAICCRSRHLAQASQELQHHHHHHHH
Description: as §1, §2

T1 sequence (Q8NBP7 other isoform, or with tags, fused parts or gaps limits assumed): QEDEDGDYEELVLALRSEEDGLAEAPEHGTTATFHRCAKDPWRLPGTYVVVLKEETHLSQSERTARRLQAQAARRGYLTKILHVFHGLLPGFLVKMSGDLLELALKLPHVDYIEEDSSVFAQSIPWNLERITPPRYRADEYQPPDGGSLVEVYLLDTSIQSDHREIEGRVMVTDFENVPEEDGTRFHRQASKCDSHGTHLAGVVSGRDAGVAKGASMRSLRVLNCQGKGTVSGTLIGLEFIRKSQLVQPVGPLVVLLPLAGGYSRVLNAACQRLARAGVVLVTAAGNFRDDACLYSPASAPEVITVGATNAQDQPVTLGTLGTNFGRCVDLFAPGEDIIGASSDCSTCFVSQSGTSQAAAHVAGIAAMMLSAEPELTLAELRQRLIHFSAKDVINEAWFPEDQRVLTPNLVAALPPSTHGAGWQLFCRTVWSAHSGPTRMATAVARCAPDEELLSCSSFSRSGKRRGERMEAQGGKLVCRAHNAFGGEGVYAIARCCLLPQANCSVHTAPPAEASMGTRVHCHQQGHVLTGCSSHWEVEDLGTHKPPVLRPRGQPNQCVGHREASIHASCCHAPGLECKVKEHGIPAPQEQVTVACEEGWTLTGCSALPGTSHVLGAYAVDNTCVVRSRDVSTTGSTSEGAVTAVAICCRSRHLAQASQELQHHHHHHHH

Binder: WNLVRIGLLR (also: further groups not given here, Structure printed only as a drawing) [Compound 134]
IC50 [1]: ≥ 50 µM
IC50 [2]: 4.2 µM

Binder: WNLVRIGLLR (also: further groups not given here, Structure printed only as a drawing) [Compound 143]
IC50 [1]: ≥ 50 µM
IC50 [2]: 23 µM

Binder: Ac-DSYPGWNLVRIGLLR-NH2 [Compound 155]
IC50 [1]: 11 µM
IC50 [2]: 50 µM

Binder: WNLVRIGLLR (also: further groups not given here, Structure printed only as a drawing) [Compound 131]
IC50 [1]: ≥ 50 µM
IC50 [2]: 6.7 µM

Binder: WNLVRIGLLR (also: further groups not given here, Structure printed only as a drawing) [Compound 141]
IC50 [1]: ≥ 50 µM
IC50 [2]: 36 µM

Binder: WNLVRIGLLR (also: further groups not given here, Structure printed only as a drawing) [Compound 144]
IC50 [1]: 9.7 µM
IC50 [2]: 4 µM

Binder: WNLVRIGLLR (also: further groups not given here, Structure printed only as a drawing) [Compound 148]
IC50 [1]: 19 µM
IC50 [2]: 11 µM

Binder: WNLVRIGLLR (also: further groups not given here, Structure printed only as a drawing) [Compound 136]
IC50 [1]: ≥ 50 µM
IC50 [2]: 9 µM

Binder: WNLVRIGLLR (also: further groups not given here, Structure printed only as a drawing) [Compound 147]
IC50 [1]: 2.6 µM
IC50 [2]: 0.41 µM

Binder: WNLVRIGLLR (also: further groups not given here, Structure printed only as a drawing) [Compound 126]
IC50 [1]: ≥ 50 µM
IC50 [2]: 19 µM

Binder: WNLVRIGLLR (also: further groups not given here, Structure printed only as a drawing) [Compound 138]
IC50 [1]: 48 µM
IC50 [2]: 4.9 µM

Binder: WNLVRIGLLR (also: further groups not given here, Structure printed only as a drawing) [Compound 142]
IC50 [1]: ≥ 50 µM
IC50 [2]: 15 µM

Binder: WNLVRIGLLR (also: further groups not given here, Structure printed only as a drawing) [Compound 137]
IC50 [1]: ≥ 50 µM
IC50 [2]: 6.7 µM

Binder: WNLVRIGLLR (also: further groups not given here, Structure printed only as a drawing) [Compound 133]
IC50 [1]: ≥ 50 µM
IC50 [2]: 17 µM

Binder: Ac-GLMPWNLVRIGLLR-NH2 [Compound 124]
IC50 [1]: ≥ 50 µM
IC50 [2]: 3.9 µM

Binder: Ac-GGMPWNLVRIGLLR-NH2 [Compound 125]
IC50 [1]: ≥ 50 µM
IC50 [2]: 7 µM

Binder: WNLVRIGLLR (also: further groups not given here, Structure printed only as a drawing) [Compound 129]
IC50 [1]: ≥ 50 µM
IC50 [2]: 23 µM

Binder: WNLVRIGLLR (also: further groups not given here, Structure printed only as a drawing) [Compound 145]
IC50 [1]: 7.3 µM
IC50 [2]: 2.2 µM

Binder: WNLVRIGLLR (also: further groups not given here, Structure printed only as a drawing) [Compound 146]
IC50 [1]: 11 µM
IC50 [2]: 1.7 µM

Binder: WNLVRIGLLR (also: further groups not given here, Structure printed only as a drawing) [Compound 128]
IC50 [1]: ≥ 50 µM
IC50 [2]: 7.5 µM

Binder: WNLVRIGLLR (also: further groups not given here, Structure printed only as a drawing) [Compound 135]
IC50 [1]: ≥ 50 µM
IC50 [2]: 10 µM

Binder: WNLVRIGLLR (also: further groups not given here, Structure printed only as a drawing) [Compound 132]
IC50 [1]: ≥ 50 µM
IC50 [2]: 9 µM

Binder: WNLVRIGLLR (also: further groups not given here, Structure printed only as a drawing) [Compound 130]
IC50 [1]: ≥ 50 µM
IC50 [2]: 8.6 µM

Binder: WNLVRIGLLR (also: further groups not given here, Structure printed only as a drawing) [Compound 140]
IC50 [1]: ≥ 50 µM
IC50 [2]: 26 µM

Binder: WNLVRIGLLR (also: further groups not given here, Structure printed only as a drawing) [Compound 139]
IC50 [1]: ≥ 50 µM
IC50 [2]: 19 µM

Binder: WNLVRIGLLR (also: further groups not given here, Structure printed only as a drawing) [Compound 127]
IC50 [1]: ≥ 50 µM
IC50 [2]: 29 µM

Second part, the binder after the results:

IC50 [1]: 11 µM
IC50 [2]: 50 µM
Binder: Ac-ESYPGWNLVRIGLLR-NH2 [Compound 156]

IC50 [1]: 12 µM
IC50 [2]: 50 µM
Binder: Ac-MDSFPGWNLVRIGLLR-NH2 [Compound 153]

IC50 [1]: ≥ 50 µM
IC50 [2]: 6.2 µM
B1: Compound 174 (peptide)
peptide: Pentanoyl-[Trp(6-F)]NLVRIGLTR-NH2
SMILES: CCCCC(=O)N[C@@H](Cc1c[nH]c2cc(F)ccc12)C(=O)N[C@@H](CC(N)=O)C(=O)N[C@@H](CC(C)C)C(=O)N[C@H](C(=O)N[C@@H](CCCNC(=N)N)C(=O)N[C@H](C(=O)NCC(=O)N[C@@H](CC(C)C)C(=O)N[C@H](C(=O)N[C@@H](CCCNC(=N)N)C(N)=O)[C@@H](C)O)[C@@H](C)CC)C(C)C

IC50 [1]: ≥ 50 µM
IC50 [2]: 1.3 µM
B2: Compound 191 (peptide)
peptide: Pentanoyl-WNLV[hArg]IGLLR-NH2
notes: also called n-BuC(O)-WNLV(homoR)IGLLR-NH2

IC50 [1]: 26 µM
IC50 [2]: 36 µM
B3: Compound 187 (peptide)
peptide: Pentanoyl-[Trp(6-Br)]NLVRIGLTR-NH2
SMILES: CCCCC(=O)N[C@@H](Cc1c[nH]c2cc(Br)ccc12)C(=O)N[C@@H](CC(N)=O)C(=O)N[C@@H](CC(C)C)C(=O)N[C@H](C(=O)N[C@@H](CCCNC(=N)N)C(=O)N[C@H](C(=O)NCC(=O)N[C@@H](CC(C)C)C(=O)N[C@H](C(=O)N[C@@H](CCCNC(=N)N)C(N)=O)[C@@H](C)O)[C@@H](C)CC)C(C)C

IC50 [1]: 31 µM
IC50 [2]: 11 µM
B4: Compound 186 (peptide)
peptide: Pentanoyl-[Trp(6-Cl)]NLVRIGLTR-NH2
SMILES: CCCCC(=O)N[C@@H](Cc1c[nH]c2cc(Cl)ccc12)C(=O)N[C@@H](CC(N)=O)C(=O)N[C@@H](CC(C)C)C(=O)N[C@H](C(=O)N[C@@H](CCCNC(=N)N)C(=O)N[C@H](C(=O)NCC(=O)N[C@@H](CC(C)C)C(=O)N[C@H](C(=O)N[C@@H](CCCNC(=N)N)C(N)=O)[C@@H](C)O)[C@@H](C)CC)C(C)C

IC50 [1]: 6.9 µM
IC50 [2]: 2.5 µM
Binder: WNLVRIGLLR (also: further groups not given here, Structure printed only as a drawing) [Compound 151]

IC50 [1]: ≥ 50 µM
IC50 [2]: 19 µM
Binder: Ac-DLMPWNLVRIGLPR-NH2 [Compound 160]

IC50 [1]: 11 µM
IC50 [2]: 50 µM
Binder: Ac-SFAFPGWNLVRIGLLR-NH2 [Compound 154]

IC50 [1]: 11 µM
IC50 [2]: 8.9 µM
Binder: WNLVRIGLLR (also: further groups not given here, Structure printed only as a drawing) [Compound 149]

IC50 [1]: 22 µM
IC50 [2]: 8.2 µM
Binder: WNLVRIGLLR (also: further groups not given here, Structure printed only as a drawing) [Compound 150]

IC50 [1]: ≥ 50 µM
IC50 [2]: 12 µM
Binder: Ac-DLMPWNLKRIGLLR-NH2 [Compound 158]

IC50 [1]: 38 µM
IC50 [2]: 12 µM
Binder: WNLVRIGLTR (also: further groups not given here, Structure printed only as a drawing) [Compound 189]

IC50 [1]: 30 µM
IC50 [2]: 7 µM
Binder: WNLVRIGLTR (also: further groups not given here, Structure printed only as a drawing) [Compound 190]

IC50 [1]: 43 µM
IC50 [2]: 14 µM
Binder: Pentanoyl-WNLVRIGLLR [Compound 152]

IC50 [1]: ≥ 50 µM
IC50 [2]: 39 µM
B5: Compound 175 (peptide)
peptide: Pentanoyl-[Trp(6-Me)]NLVRIGLTR-NH2
SMILES: CCCCC(=O)N[C@@H](Cc1c[nH]c2cc(C)ccc12)C(=O)N[C@@H](CC(N)=O)C(=O)N[C@@H](CC(C)C)C(=O)N[C@H](C(=O)N[C@@H](CCCNC(=N)N)C(=O)N[C@H](C(=O)NCC(=O)N[C@@H](CC(C)C)C(=O)N[C@H](C(=O)N[C@@H](CCCNC(=N)N)C(N)=O)[C@@H](C)O)[C@@H](C)CC)C(C)C
